Biological target: the molecule itself
Experiment: SAXS; nucleotide-free KaiC monomer (1.69 mg/ml) mixed with P-buffer containing ATP to 1 mM final; curve taken at 30°C 6 min after addition of ATP; monomer to hexamer

B1: KaiC (natural protein, UniProt Q79PF4 1-519, looked up)
chain: MTSAEMTSPNNNSEHQAIAKMRTMIEGFDDISHGGLPIGRSTLVSGTSGTGKTLFSIQFLYNGIIEFDEPGVFVTFEETPQDIIKNARSFGWDLAKLVDEGKLFILDASPDPEGQEVVGGFDLSALIERINYAIQKYRARRVSIDSVTSVFQQYDASSVVRRELFRLVARLKQIGATTVMTTERIEEYGPIARYGVEEFVSDNVVILRNVLEGERRRRTLEILKLRGTSHMKGEYPFTITDHGINIFPLGAMRLTQRSSNVRVSSGVVRLDEMCGGGFFKDSIILATGATGTGKTLLVSRFVENACANKERAILFAYEESRAQLLRNAYSWGMDFEEMERQNLLKIVCAYPESAGLEDHLQIIKSEINDFKPARIAIDSLSALARGVSNNAFRQFVIGVTGYAKQEEITGLFTNTSDQFMGAHSITDSHISTITDTIILLQYVEIRGEMSRAINVFKMRGSWHDKAIREFMISDKGPDIKDSFRNFERIISGSPTRITVDEKSELSRIVRGVQEKGPES
  stoichiometry N: 6.05 ± 0.08 fold

Source: article PMC4736791 (Biophysics, 2015)
